Blank lines part the entries; values can stand above or below the binder they belong to.
Experiments:
[1] = target: T1, fetal acetylcholine receptor (AChR) on the cell membrane of TE671 cells (human, UniProt P02708 21-457; P11230 24-501; Q07001 22-517; P07510 23-517); assay: flow cytometry competition on TE671 cells expressing fetal AChR; competitor biotinylated mAb637 at 8 µg/ml, detected with labelled streptavidin
T1 construct: whole, on cells; The subunit make-up (alpha2, beta, gamma, delta) is general knowledge of the fetal receptor; also called autoantigen AChR

[2] = target: AChR (A, B, D and E) expressed on recombinant 293T cells; assay: cell-based or functional assay

T1 sequence (P02708 21-457, chain 1 of 4): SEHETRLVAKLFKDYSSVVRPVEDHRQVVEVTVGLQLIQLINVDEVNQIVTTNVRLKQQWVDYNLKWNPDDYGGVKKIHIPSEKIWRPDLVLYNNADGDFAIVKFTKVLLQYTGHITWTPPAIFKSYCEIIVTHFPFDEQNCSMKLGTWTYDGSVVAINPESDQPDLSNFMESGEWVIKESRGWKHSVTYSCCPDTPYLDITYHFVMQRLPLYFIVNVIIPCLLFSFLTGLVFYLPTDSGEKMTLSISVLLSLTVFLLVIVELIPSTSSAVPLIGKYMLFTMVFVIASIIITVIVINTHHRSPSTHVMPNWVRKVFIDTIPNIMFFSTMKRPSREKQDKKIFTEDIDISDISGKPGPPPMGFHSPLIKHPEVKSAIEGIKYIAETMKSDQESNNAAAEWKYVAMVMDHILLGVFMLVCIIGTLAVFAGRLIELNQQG
T1 sequence (P11230 24-501, chain 2 of 4): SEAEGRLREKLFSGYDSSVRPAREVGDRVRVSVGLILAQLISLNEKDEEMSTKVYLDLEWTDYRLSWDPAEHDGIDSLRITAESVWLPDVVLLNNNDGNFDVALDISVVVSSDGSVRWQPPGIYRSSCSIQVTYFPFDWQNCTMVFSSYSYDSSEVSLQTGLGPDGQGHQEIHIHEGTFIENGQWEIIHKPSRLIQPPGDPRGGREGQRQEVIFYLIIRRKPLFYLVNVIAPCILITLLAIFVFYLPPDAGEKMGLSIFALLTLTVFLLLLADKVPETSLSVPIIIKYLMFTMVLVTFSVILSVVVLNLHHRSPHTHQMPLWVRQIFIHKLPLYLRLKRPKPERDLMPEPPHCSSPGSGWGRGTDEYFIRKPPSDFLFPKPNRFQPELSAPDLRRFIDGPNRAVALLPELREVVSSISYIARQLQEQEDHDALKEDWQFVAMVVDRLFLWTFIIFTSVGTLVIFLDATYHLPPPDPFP
T1 sequence (Q07001 22-517, chain 3 of 4): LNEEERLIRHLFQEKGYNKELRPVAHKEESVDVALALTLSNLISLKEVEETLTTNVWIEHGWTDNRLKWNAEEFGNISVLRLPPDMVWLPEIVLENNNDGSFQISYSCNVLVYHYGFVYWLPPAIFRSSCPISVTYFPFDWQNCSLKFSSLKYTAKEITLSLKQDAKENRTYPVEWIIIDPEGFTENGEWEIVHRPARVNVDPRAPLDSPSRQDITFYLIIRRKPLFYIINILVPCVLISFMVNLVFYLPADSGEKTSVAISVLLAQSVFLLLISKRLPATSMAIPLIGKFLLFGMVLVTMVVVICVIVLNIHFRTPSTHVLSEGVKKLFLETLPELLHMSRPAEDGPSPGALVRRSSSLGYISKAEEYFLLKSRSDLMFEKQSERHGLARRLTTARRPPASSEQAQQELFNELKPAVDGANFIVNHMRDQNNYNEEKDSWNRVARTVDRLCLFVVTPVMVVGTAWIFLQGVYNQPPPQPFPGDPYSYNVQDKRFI
T1 sequence (P07510 23-517, chain 4 of 4): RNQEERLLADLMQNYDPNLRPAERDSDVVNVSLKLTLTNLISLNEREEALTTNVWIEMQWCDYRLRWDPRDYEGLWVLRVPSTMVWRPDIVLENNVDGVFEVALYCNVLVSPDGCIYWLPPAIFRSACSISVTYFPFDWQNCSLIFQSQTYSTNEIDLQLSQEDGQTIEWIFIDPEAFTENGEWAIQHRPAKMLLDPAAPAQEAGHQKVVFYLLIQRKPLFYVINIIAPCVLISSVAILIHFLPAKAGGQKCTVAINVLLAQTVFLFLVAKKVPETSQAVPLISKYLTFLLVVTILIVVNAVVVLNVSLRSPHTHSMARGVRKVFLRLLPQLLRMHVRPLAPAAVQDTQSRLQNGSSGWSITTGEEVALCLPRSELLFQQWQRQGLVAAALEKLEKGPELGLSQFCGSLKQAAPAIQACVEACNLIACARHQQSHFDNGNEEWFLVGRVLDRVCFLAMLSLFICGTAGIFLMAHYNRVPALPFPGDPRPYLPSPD

decrease of the ratio of C5b-9 positive cells caused by humanized mAb35, at 0.15 µg/ml [2]: > 60%
B2: mAb192 C IgG2/4 (antibody)
heavy: DIQMTQSPPSLSASLGDKVTITCQASQDINKYIAWYQQKPGKAPRQLIRYTSILVLGTPSRFSGSGSGRDFSFSISNVASEDIASYYCLQYGNLYTFGAGTKLEIKRSSASTKGPSVFPLAPCSRSTSESTAALGCLVKDYFPEPVTVSWNSGALTSGVHTFPAVLQSSGLYSLSSVVTVPSSNFGTQTYTCNVDHKPSNTKVDKTVERKCCVECPPCPAPPVAGPSVFLFPPKPKDTLMISRTPEVTCVVVDVSQEDPEVQFNWYVDGVEVHNAKTKPREEQFNSTYRVVSVLTVLHQDWLNGKEYKCKVSNKGLPSSIEKTISKAKGQPREPQVYTLPPSQEEMTKNQVSLTCLVKGFYPSDIAVEWESNGQPENYKTTPPVLDSDGSFFLYSRLTVDKSRWQEGNVFSCSVMHEALHNHYTQKSLSLSLGK
light: QVQLLESGPGLVQPSQTLSLTCTVSGFSLTTNGVSWVRQPPGKGLEWIAAISSGGSPYYNSALKSRLSINRDTSKSQVFLKMNSLQTEDTAIYFCTREDGWNYFDYWGPGTMVTVSSASVAAPSVFIFPPSDEQLKSGTASVVCLLNNFYPREAKVQWKVDNALQSGNSQESVTEQDSKDSTYSLSSTLTLSKADYEKHKVYACEVTHQGLSSPVTKSFNRGEC
decrease of apoptosis (CDC cell death) caused by humanized mAb35, at 0.15 µg/ml [2]: > 37%

decrease of the ratio of C5b-9 positive cells caused by humanized mAb35, at 0.15 µg/ml [2]: > 60%
B3: mAb192 C IgG4 (antibody)
heavy: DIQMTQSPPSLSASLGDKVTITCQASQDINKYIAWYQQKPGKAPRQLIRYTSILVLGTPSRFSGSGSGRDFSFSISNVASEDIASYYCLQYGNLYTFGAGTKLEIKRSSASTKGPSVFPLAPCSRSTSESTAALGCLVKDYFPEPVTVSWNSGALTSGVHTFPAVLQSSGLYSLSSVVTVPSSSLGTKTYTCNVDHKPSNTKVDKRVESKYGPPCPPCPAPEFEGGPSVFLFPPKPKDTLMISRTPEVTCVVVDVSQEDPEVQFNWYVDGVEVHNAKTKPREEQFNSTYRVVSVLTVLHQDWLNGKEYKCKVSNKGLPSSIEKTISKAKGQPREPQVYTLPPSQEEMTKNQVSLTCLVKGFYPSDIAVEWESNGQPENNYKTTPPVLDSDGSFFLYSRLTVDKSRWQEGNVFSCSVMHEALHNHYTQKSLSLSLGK
light: B2 light
decrease of apoptosis (CDC cell death) caused by humanized mAb35, at 0.15 µg/ml [2]: > 37%

The remaining lines, values behind:

B1: mAb637 B (antibody, human IgG2, kappa)
heavy: NFELTQPHSVSESPGKTVTISCTRSSGSIASNYVQWYQQRPGSSPTTVIYEDNQRPSGVPDRFSGSIDSSSNSASLTISGLKTEDEADYYCQSYDSNSGGRVFGGGTKLTVLRTVAAPSVFIFPPSDEQLKSGTASVVCLLNNFYPREAKVQWKVDNALQSGNSQESVTEQDSKDSTYSLSSTLTLSKADYEKHKVYACEVTHQGLSSPVTKSFNRGECERKCCVECPPCPAPPVAGPSVFLFPPKPKDTLMISRTPEVTCVVVDVSQEDPEVQFNWYVDGVEVHNAKTKPREEQFNSTYRVVSVLTVLHQDWLNGKEYKCKVSNKGLPSSIEKTISKAKGQPREPQVYTLPPSQEEMTKNQVSLTCLVKGFYPSDIAVEWESNGQPENYKTTPPVLDSDGSFFLYSRLTVDKSRWQEGNVFSCSVMHEALHNHYTQKSLSLSLGK
light: QVQLLESGGGLVKPGGSLRLSCAASGFKSTDYYMAWVRQAPGRGLEWVSFISGRVFTNYTASVRGRFTVFREDDNTSVYLQMSRLRVEDTAVYYCARLRGIFRGPLKPLEYYFDLWGRGTLVTVSSASTKGPSVFPLAPCSRSTSESTAALGCLVKDYFPEPVTVSWNSGALTSGVHTFPAVLQSSGLYSLSSVVTVPSSNFGTQTYTCNVDHKPSNTKVDKTV
notes: also called candidate antibody
binding result [1]: binds

B4: mAb192 C IgG1 (antibody)
heavy: not shown
light: B2 light
decrease of apoptosis (CDC cell death) caused by humanized mAb35, at 0.15 µg/ml [2]: > 37%
decrease of the ratio of C5b-9 positive cells caused by humanized mAb35, at 0.15 µg/ml [2]: > 60%
